Sequences and labels used below:
T1: (His)6-tagged erythrocyte cytoplasmic domain of band 3 (cdb3), wild type (UniProt P02730 1-403)
T1 sequence (looked up): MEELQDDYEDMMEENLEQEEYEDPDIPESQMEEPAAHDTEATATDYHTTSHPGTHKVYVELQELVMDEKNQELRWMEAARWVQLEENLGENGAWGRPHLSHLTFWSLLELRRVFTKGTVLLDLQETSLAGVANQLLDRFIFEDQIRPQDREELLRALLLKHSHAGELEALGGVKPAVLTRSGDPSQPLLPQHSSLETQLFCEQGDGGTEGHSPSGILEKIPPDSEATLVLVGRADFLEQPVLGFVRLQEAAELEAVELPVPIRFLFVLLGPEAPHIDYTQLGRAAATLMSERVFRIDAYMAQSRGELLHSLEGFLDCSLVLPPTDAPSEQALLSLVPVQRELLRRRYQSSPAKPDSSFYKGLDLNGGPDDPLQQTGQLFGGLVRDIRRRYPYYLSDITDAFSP

B1: (His)6-tagged kidney cytoplasmic domain of band 3 (kidney cdb3) (domain or fragment, UniProt P02730-2 1-338, looked up)
chain: MDEKNQELRWMEAARWVQLEENLGENGAWGRPHLSHLTFWSLLELRRVFTKGTVLLDLQETSLAGVANQLLDRFIFEDQIRPQDREELLRALLLKHSHAGELEALGGVKPAVLTRSGDPSQPLLPQHSSLETQLFCEQGDGGTEGHSPSGILEKIPPDSEATLVLVGRADFLEQPVLGFVRLQEAAELEAVELPVPIRFLFVLLGPEAPHIDYTQLGRAAATLMSERVFRIDAYMAQSRGELLHSLEGFLDCSLVLPPTDAPSEQALLSLVPVQRELLRRRYQSSPAKPDSSFYKGLDLNGGPDDPLQQTGQLFGGLVRDIRRRYPYYLSDITDAFSP
B2: GST-β-adducin tail (amino acids 335–726) (domain or fragment, UniProt P35612 335-726, looked up)
chain: EKHRPHEVGSVQWAGSTFGPMQKSRLGEHEFEALMRMLDNLGYRTGYTYRHPFVQEKTKHKSEVEIPATVTAFVFEEDGAPVPALRQHAQKQQKEKTRWLNTPNTYLRVNVADEVQRSMGSPRPKTTWMKADEVEKSSSGMPIRIENPNQFVPLYTDPQEVLEMRNKIREQNRQDVKSAGPQSQLLASVIAEKSRSPSTESQLMSKGDEDTKDDSEETVPNPFSQLTDQELEEYKKEVERKKLELDGEKETAPEEPGSPAKSAPASPVQSPAKEAETKSPLVSPSKSLEEGTKKTETSKAATTEPETTQPEGVVVNGREEEQTAEEILSKGLSQMTTSADTDVDTSKDKTESVTSGPMSPEGSPSKSPSKKKKKFRTPSFLKKSKKKEKVES

The target in experiment [1] is B2. Put plainly: pull-down.
The target of experiment [2] is T1, (His)6-tagged erythrocyte cytoplasmic …. Kind of experiment: pull-down.

The values that follow come from PMC5042879 (The Biochemical journal, 2016).

For B1, the Kd – broadly, a measure of binding affinity in units of concentration – in experiment [1] was determined as 280 nM.

B2 displayed a Kd in experiment [2] of 260 nM.
